Experimental data published in article PMC5717350, “The human CTF4-orthologue AND-1 interacts with DNA polymerase α/primase via its unique C-terminal HMG box” (Open Biology, 2017).
Changes are numbered by the printed parent chain.

T1: GST-BNTD (B subunit amino acids 1–78) (human, UniProt Q14181 1-78)
T1 construct: human DNA polymerase α B subunit, residues 1-78 (four-helix bundle N-terminal domain); also called GST-B(1–78); B N-terminal domain; source: E. coli Rosetta2(DE3), purified (Ni-NTA agarose)
T1 sequence (looked up): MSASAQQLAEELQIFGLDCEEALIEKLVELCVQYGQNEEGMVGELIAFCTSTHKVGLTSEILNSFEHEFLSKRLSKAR

T2: GST-BNTD (1–78) A47E (human, UniProt Q14181 1-78, A47E)
T2 construct: human DNA polymerase α B subunit, residues 1-78; also called A47E mutant GST-BNTD; source: E. coli Rosetta2(DE3), purified (Ni-NTA agarose)
T2 sequence (looked up): T1 sequence (looked up) with A47E

B1: AND-1 (329–826), SepB domain (domain or fragment, human, UniProt O75717 329-826, looked up)
chain: GDDMSNAGDFLNDNAVEIPSFSKGIINDDEDDEDLMMASGRPRQRSHILEDDENSVDISMLKTGSSLLKEEEEDGQEGSIHNLPLVTSQRPFYDGPMPTPRQKPFQSGSTPLHLTHRFMVWNSIGIIRCYNDEQDNAIDVEFHDTSIHHATHLSNTLNYTIADLSHEAILLACESTDELASKLHCLHFSSWDSSKEWIIDLPQNEDIEAICLGQGWAAAATSALLLRLFTIGGVQKEVFSLAGPVVSMAGHGEQLFIVYHRGTGFDGDQCLGVQLLELGKKKKQILHGDPLPLTRKSYLAWIGFSAEGTPCYVDSEGIVRMLNRGLGNTWTPICNTREHCKGKSDHYWVVGIHENPQQLRCIPCKGSRFPPTLPRPAVAILSFKLPYCQIATEKGQMEEQFWRSVIFHNHLDYLAKNGYEYEESTKNQATKEQQELLMKMLALSCKLEREFRCVELADLMTQNAVNLAIKYASRSRKLILAQKLSELAVEKAAELTAT
notes: human AND-1, residues 329-826 (SepB domain); residues 329-420 and 824-826 not in the final crystallographic model; Trimer arises from crystallographic symmetry (one protomer per asymmetric unit); also called AND-1 SepB
B2: B (1–78), free BNTD used as competitor (domain or fragment, human, UniProt Q14181 1-78, looked up)
chain: T1 sequence (looked up)
notes: human DNA polymerase α B subunit, residues 1-78; it names the protein 'B (1–78)' and 'free BNTD'; also called purified BNTD; source: E. coli Rosetta2(DE3), purified
B3: GST-B subunit (1–104) (domain or fragment, human, UniProt Q14181 1-104, looked up)
chain: MSASAQQLAEELQIFGLDCEEALIEKLVELCVQYGQNEEGMVGELIAFCTSTHKVGLTSEILNSFEHEFLSKRLSKARHSTCKDSGHAGARDIVSIQELIEVEE
notes: human DNA polymerase α B subunit, residues 1-104; also called GST-B fusion protein 1–104; source: E. coli Rosetta2(DE3), purified (Ni-NTA agarose)
B4: MBP-tagged AND-1 HMG box (1017–1076), wild type (domain or fragment, human, UniProt O75717 1017-1076, looked up)
chain: RPKTGFQMWLEENRSNILSDNPDFSDEADIIKEGMIRFRVLSTEERKVWANKAKGETASE
notes: human AND-1 HMG box, residues 1017-1076; also called AND-1(1017–1076); source: E. coli Rosetta2(DE3), purified (Ni-NTA, Superdex 200)
B5: GST-B subunit (1–156) (domain or fragment, human, UniProt Q14181 1-156, looked up)
chain: MSASAQQLAEELQIFGLDCEEALIEKLVELCVQYGQNEEGMVGELIAFCTSTHKVGLTSEILNSFEHEFLSKRLSKARHSTCKDSGHAGARDIVSIQELIEVEEEEEILLNSYTTPSKGSQKRAISTPETPLTKRSVSTRSPHQLLSPSSFSPSAT
notes: human DNA polymerase α B subunit, residues 1-156; also called GST-B fusion protein 1–156; source: E. coli Rosetta2(DE3), purified (Ni-NTA agarose)
B6: AND-1 SepB (336–826) (domain or fragment, human, UniProt O75717 336-826, looked up)
chain: GDFLNDNAVEIPSFSKGIINDDEDDEDLMMASGRPRQRSHILEDDENSVDISMLKTGSSLLKEEEEDGQEGSIHNLPLVTSQRPFYDGPMPTPRQKPFQSGSTPLHLTHRFMVWNSIGIIRCYNDEQDNAIDVEFHDTSIHHATHLSNTLNYTIADLSHEAILLACESTDELASKLHCLHFSSWDSSKEWIIDLPQNEDIEAICLGQGWAAAATSALLLRLFTIGGVQKEVFSLAGPVVSMAGHGEQLFIVYHRGTGFDGDQCLGVQLLELGKKKKQILHGDPLPLTRKSYLAWIGFSAEGTPCYVDSEGIVRMLNRGLGNTWTPICNTREHCKGKSDHYWVVGIHENPQQLRCIPCKGSRFPPTLPRPAVAILSFKLPYCQIATEKGQMEEQFWRSVIFHNHLDYLAKNGYEYEESTKNQATKEQQELLMKMLALSCKLEREFRCVELADLMTQNAVNLAIKYASRSRKLILAQKLSELAVEKAAELTAT
notes: source: E. coli Rosetta2(DE3), purified (Ni-NTA, Q-Sepharose, TEV cleavage, Superdex 200)
B7: GST-Pol α (148–171), wild type (domain or fragment, human)
chain: DKAVDLSKDGLLGDILQDLNTETP
notes: also called GST-Pol α CIP; GST-tagged Pol α CIP; source: E. coli Rosetta2(DE3), purified (Ni-NTA agarose); not shown: His tag (from the purification on Ni-NTA)
B8: Full-length His10-myc-tagged AND-1 (1–1129) (natural protein, human, UniProt O75717 1-1129, looked up)
chain: MPATRKPMRYGHTEGHTEVCFDDSGSFIVTCGSDGDVRIWEDLDDDDPKFINVGEKAYSCALKSGKLVTAVSNNTIQVHTFPEGVPDGILTRFTTNANHVVFNGDGTKIAAGSSDFLVKIVDVMDSSQQKTFRGHDAPVLSLSFDPKDIFLASASCDGSVRVWQISDQTCAISWPLLQKCNDVINAKSICRLAWQPKSGKLLAIPVEKSVKLYRRESWSHQFDLSDNFISQTLNIVTWSPCGQYLAAGSINGLIIVWNVETKDCMERVKHEKGYAICGLAWHPTCGRISYTDAEGNLGLLENVCDPSGKTSSSKVSSRVEKDYNDLFDGDDMSNAGDFLNDNAVEIPSFSKGIINDDEDDEDLMMASGRPRQRSHILEDDENSVDISMLKTGSSLLKEEEEDGQEGSIHNLPLVTSQRPFYDGPMPTPRQKPFQSGSTPLHLTHRFMVWNSIGIIRCYNDEQDNAIDVEFHDTSIHHATHLSNTLNYTIADLSHEAILLACESTDELASKLHCLHFSSWDSSKEWIIDLPQNEDIEAICLGQGWAAAATSALLLRLFTIGGVQKEVFSLAGPVVSMAGHGEQLFIVYHRGTGFDGDQCLGVQLLELGKKKKQILHGDPLPLTRKSYLAWIGFSAEGTPCYVDSEGIVRMLNRGLGNTWTPICNTREHCKGKSDHYWVVGIHENPQQLRCIPCKGSRFPPTLPRPAVAILSFKLPYCQIATEKGQMEEQFWRSVIFHNHLDYLAKNGYEYEESTKNQATKEQQELLMKMLALSCKLEREFRCVELADLMTQNAVNLAIKYASRSRKLILAQKLSELAVEKAAELTATQVEEEEEEEDFRKKLNAGYSNTATEWSQPRFRNQVEEDAEDSGEADDEEKPEIHKPGQNSFSKSTNSSDVSAKSGAVTFSSQGRVNPFKVSASSKEPAMSMNSARSTNILDNMGKSSKKSTALSRTTNNEKSPIIKPLIPKPKPKQASAASYFQKRNSQTNKTEEVKEENLKNVLSETPAICPPQNTENQRPKTGFQMWLEENRSNILSDNPDFSDEADIIKEGMIRFRVLSTEERKVWANKAKGETASEGTEAKKRKRVVDESDETENQEEKAKENLNLSKKQKPLDFSTNQKLSAFAFKQE
notes: the oligomeric state was measured only on the SepB constructs; also called His-myc-AND-1; human CTF4-orthologue AND-1; source: Sf9 insect cells (baculovirus, MultiBac), purified (Ni-NTA, Q-Sepharose)

Tests used:
[1] = target: the molecule itself; assay: crystal structure; AND-1 329–826 crystallised at 9 mg/ml; space group F432, one protomer per asymmetric unit, trimer by crystallographic symmetry; 2.5 Å
[2] = target: B8; assay: pull-down; competition: Pol α/primase bound to 100 µl Strep-Tactin Superflow resin, 1 nmol AND-1 added together with 100 nmol B (1–78) or Pol α CIP peptide 156–170; eluted with 10 mM desthiobiotin; Coomassie and anti-His western blot; conditions: both partners purified
[3] = target: B8; assay: pull-down; GST-B fusion proteins (in figure 6a also GST-Pol α CIP, equimolar) bound to 100 µl glutathione agarose, 2.2 nmol AND-1 (1–1129, 316–1129 or 336–826) added as prey; PD buffer, 2.5 mg/ml BSA, 4°C; Coomassie, anti-His western blot in figure 6a; conditions: both partners purified
[4] = target: T1, GST-BNTD (B subunit amino acids 1–78); assay: pull-down; MBP-AND-1 constructs bound to 100 µl amylose resin, 25 nmol GST-B added as prey; PD buffer, 2.5 mg/ml BSA, 4°C; eluted with 20 mM maltose; Coomassie; conditions: both partners purified
[5] = target: T2, GST-BNTD (1–78) A47E; assay: as above; conditions: both partners purified
[6] = target: the molecule itself; assay: SEC-MALS; 100 µl AND-1 336–826 at 2–4 mg/ml on Superdex S200 10/300 GL; 25 mM HEPES pH 7.0, 200 mM NaCl
[7] = target: B6; assay: pull-down; GST-Pol α fusion proteins bound to 100 µl glutathione agarose, 20 nmol AND-1 SepB added as prey; PD buffer, 2.5 mg/ml BSA, 4°C; eluted with 20 mM reduced glutathione; Coomassie; conditions: both partners purified
[8] = target: T3, Pol α/primase, full-length heterotetrameric complex (Polα-B-PriS-PriL) (human, UniProt P09884 1-1462; Q14181 1-598; P49642 1-420; P49643 1-509); assay: pull-down; StrepII-tagged Pol α/primase bound to 100 µl Strep-Tactin Superflow resin, about 2.4 nmol AND-1 added as prey; PD buffer (PBS, 5% glycerol, 0.5 mM TCEP, 0.2% Igepal), 2.5 mg/ml BSA, 4°C; eluted with 10 mM desthiobiotin; Coomassie and anti-His western blot; conditions: both partners purified
T3 construct: human DNA polymerase α catalytic subunit, residues 1-1462; human DNA polymerase α B subunit, residues 1-598; human primase small subunit PriS, residues 1-420; human primase large subunit PriL, residues 1-509; The wording 'Double StrepII-tagged human DNA polymerase α (1–1462) and its B subunit (1–598)' leaves open whether the B subunit is tagged too; the tag is written on Pol α only; also called …
T3 sequence (P09884 whole entry, chain 1 of 3, the tested form may be a part): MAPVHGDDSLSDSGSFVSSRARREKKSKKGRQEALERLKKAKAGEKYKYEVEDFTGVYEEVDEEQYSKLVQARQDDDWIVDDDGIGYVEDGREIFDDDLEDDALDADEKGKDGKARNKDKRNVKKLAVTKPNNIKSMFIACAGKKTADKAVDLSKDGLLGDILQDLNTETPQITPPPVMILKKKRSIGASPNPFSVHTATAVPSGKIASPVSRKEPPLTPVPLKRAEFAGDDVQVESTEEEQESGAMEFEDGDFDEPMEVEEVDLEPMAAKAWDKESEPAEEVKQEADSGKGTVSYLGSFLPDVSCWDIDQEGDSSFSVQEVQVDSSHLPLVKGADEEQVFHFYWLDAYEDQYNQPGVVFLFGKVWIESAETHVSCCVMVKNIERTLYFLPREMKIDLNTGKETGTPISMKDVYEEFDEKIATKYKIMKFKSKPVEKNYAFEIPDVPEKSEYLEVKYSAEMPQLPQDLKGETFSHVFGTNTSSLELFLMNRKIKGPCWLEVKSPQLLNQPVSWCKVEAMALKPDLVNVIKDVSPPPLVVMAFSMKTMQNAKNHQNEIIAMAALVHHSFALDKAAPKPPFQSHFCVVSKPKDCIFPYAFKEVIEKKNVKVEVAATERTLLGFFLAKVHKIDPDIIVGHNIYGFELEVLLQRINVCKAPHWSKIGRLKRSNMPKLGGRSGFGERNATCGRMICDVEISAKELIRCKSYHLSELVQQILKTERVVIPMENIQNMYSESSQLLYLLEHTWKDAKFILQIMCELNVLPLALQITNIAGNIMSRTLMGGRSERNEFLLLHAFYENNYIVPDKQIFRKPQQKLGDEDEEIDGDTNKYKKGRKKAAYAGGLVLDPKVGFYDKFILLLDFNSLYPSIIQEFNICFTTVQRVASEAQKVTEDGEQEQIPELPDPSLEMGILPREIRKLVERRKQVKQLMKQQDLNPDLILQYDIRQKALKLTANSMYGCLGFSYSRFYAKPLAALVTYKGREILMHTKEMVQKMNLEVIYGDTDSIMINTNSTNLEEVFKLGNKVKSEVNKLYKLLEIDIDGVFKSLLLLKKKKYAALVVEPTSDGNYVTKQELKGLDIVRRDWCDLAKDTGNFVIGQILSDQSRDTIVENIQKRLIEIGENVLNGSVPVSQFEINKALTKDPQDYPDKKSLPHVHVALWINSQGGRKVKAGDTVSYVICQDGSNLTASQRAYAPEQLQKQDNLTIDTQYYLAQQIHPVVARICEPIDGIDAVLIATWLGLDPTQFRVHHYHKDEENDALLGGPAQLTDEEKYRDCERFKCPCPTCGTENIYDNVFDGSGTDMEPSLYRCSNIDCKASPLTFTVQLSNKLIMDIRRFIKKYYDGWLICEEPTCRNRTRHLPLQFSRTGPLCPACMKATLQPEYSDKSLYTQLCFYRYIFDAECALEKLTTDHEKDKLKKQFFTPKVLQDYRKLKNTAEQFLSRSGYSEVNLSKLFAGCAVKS
T3 sequence (P49642 whole entry, chain 3 of 3, the tested form may be a part): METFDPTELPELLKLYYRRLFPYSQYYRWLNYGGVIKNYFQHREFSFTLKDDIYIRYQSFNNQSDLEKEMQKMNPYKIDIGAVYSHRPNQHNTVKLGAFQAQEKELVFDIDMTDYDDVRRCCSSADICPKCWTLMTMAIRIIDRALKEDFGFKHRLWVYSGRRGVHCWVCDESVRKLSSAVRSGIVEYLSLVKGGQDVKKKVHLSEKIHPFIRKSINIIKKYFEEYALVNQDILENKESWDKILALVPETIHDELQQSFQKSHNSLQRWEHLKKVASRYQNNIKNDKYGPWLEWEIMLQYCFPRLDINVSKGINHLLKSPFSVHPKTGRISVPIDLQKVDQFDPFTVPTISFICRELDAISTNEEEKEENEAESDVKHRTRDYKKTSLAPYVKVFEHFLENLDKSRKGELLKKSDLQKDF
T3 sequence (P49643 whole entry, chain 4 of 3, the tested form may be a part): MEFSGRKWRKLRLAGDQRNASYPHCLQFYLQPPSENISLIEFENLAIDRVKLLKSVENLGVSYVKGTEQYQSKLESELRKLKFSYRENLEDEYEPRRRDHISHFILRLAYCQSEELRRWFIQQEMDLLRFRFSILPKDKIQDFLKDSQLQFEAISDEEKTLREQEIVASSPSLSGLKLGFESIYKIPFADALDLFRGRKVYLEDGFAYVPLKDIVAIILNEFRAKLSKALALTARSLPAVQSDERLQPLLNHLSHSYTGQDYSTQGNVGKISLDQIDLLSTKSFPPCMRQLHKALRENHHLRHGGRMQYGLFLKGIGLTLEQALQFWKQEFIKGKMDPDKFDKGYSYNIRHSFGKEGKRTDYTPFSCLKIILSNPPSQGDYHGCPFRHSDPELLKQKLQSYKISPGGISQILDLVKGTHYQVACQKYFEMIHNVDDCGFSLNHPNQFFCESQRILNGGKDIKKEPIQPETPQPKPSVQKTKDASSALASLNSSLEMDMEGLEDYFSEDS

B1: binds [1].

B2: binds [2].

B3: binds [3].

B4: binds [4]; binds [5].

B5: binds [3].

B6 was tested, and the “stoichiometry N” value [6] was 3.

B7: binds [7].

B8: binds [8].
